Assay results from PMC10427353, “MSL1 Promotes Liver Regeneration by Driving Phase Separation of STAT3 and Histone H4 and Enhancing Their Acetylation” (Advanced Science, 2023).

Columns and labels:
[1] = target: T1, H4 (recombinant, pET‐28a) (mouse, UniProt P62806 1-103); assay: co-sedimentation; sedimentation assay of condensates: purified proteins mixed in phase separation buffer (20 mM HEPES pH 7.8, NaCl, PEG‐8000), 15 000 g for 10 min, supernatant and pellet on SDS–PAGE with Coomassie staining; details: both partners purified
T1 construct: histone H4 in pET‐28a; cDNA amplified from mouse liver; The legend of the sedimentation assay names 'H4'; also called histone H4; source: E. coli BL21, purified (HiTrap HP chelating column)

[2] = target: T2, STAT3 (recombinant, pET‐28a) (mouse, UniProt P42227 1-770); assay: as above; details: both partners purified
T2 construct: STAT3 in pET‐28a; cDNA amplified from mouse liver; The legend of the sedimentation assay names 'STAT3'; source: E. coli BL21, purified (HiTrap HP chelating column)
T2 sequence (P42227 whole entry): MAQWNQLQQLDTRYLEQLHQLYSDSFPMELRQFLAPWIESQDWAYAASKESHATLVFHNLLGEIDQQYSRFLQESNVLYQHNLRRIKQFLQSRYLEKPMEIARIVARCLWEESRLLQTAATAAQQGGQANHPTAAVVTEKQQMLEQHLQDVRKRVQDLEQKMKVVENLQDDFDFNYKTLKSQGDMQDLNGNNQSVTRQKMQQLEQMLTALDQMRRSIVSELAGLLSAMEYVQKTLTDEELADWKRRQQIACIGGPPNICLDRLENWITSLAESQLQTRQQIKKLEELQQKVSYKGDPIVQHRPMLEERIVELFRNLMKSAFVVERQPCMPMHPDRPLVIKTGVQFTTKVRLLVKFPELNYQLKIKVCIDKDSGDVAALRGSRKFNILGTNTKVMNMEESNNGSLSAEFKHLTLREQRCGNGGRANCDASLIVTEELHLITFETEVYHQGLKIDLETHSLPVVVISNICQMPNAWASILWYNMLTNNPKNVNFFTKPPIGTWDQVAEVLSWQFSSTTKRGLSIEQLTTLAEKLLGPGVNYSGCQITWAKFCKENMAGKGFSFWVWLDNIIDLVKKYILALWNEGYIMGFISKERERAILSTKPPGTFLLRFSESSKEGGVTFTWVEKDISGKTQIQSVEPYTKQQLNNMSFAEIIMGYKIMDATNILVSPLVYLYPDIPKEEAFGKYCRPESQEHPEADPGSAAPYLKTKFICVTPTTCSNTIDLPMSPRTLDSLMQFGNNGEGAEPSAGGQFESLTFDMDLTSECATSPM

B1: MSL1 (recombinant, pET‐28a) (natural protein, mouse, UniProt Q6PDM1 1-616, looked up)
chain: MTMRSAVFKAAAAPAGGNPEQRLDYERAAALGGPEDESGAAEAHFLPRHRKLKEPGPPLASSQGGSPSPSPAGCGGGKGRGLLLPAGAAPGQQEESWGGSVPLPCPPPATKQAGIGGEPVAAGAGCSPRPKYQAVLPIQTGSIVVAAAKEPTPWAGDKGGAAPPAATASDPAGPPPLPLPGPPPLAPTATAGTLAASEGRWKSIRKSPLGGGGGSGASSQAACLKQILLLQLDLIEQQQQQLQAKEKEIEELKSERDTLLARIERMERRMQLVKRDNEKERHKLLQGYEPEEREEAELSEKIKLERQPELCETSQALPSKPFSCGRSGKGHKRKTPFGNTERKTPVKKLAPEFSKVKTKTPKHSPIKEEPCGSISETVCKRELRSQETPEKPRSSVDTPPRLSTPQKGPSTHPKEKAFSSEMEDLPYLSTTEMYLCRWHQPPPSPLPLRESSPKKEETVARCLMPSSVAGETSVLAVPSWRDHSVEPLRDPNPSDILENLDDSVFSKRHAKLELDEKRRKRWDIQRIREQRILQRLQLRMYKKKGIQESEPEVTSFFPEPDDVESLLITPFLPVVAFGRPLPKLAPQNFELPWLDERSRCRLEIQKKHTPHRTCRK
notes: MSL1 in pET‐28a; cDNA amplified from mouse liver; The legend of the sedimentation assay names 'MSL1'; source: E. coli BL21, purified (HiTrap HP chelating column)
What does the source list for B1?
binding result [1]: binds; binding result [2]: binds
